# Reference: patent US20090060924A1 (Eli Lilly, published 2009)
# B1: humanized anti-sclerostin monoclonal antibody 88 (antibody, human IgG4 S228P, kappa, V domains shown)
# VH: QVQLVQSGAEVKKPGASVKVSCKVSGFPIKDTFQHWVRQAPGKGLEWMGWSDPEIGDTEYASKFQGRVTMTEDTSTDTAYMELSSLRSEDTAVYYCATGDTTYKFDFWGQGTTVTVSS
# VL: DIQMTQSPSSLSASVGDRVTITCKASQDVHTAVAWYQQKPGKAPKLLIYWASTRWTGVPSRFSGSGSGTDFTLTISSLQPEDFATYYCQQYSDYPWTFGGGTKVEIKR
# notes: Full-length humanized antibody; Derived from chimeric parent 788
# B2: humanized anti-sclerostin monoclonal antibody 89 (antibody, human IgG4 S228P, kappa, V domains shown)
# VH: EVQLVQSGAEVKKPGESLKISCKGSDFEIKDYYIHWVRQMPGKGLEWMGQIDAEDGETEYAPRFQGQVTISADKSISTAYLQWSSLKASDTAMYYCAREGYYYDGRDYWYFDVWGQGTTVTVSS
# VL: EIVLTQSPATLSLSPGERATLSCSASSSVSYIHWYQQKPGQAPRLLIYSTSELASGIPARFSGSGSGTDFTLTISSLEPEDFAVYYCQQLSHLPLTFGGGTKVEIKR
# notes: Full-length humanized antibody; Derived from chimeric parent 789
# B3: humanized anti-sclerostin monoclonal antibody 86 (antibody, human IgG4 S228P, kappa, V domains shown)
# VH: QVQLVQSGAEVKKPGSSVKVSCKASGYTFTDYFLNWVRQAPGQGLEWMGTIYPYHDGTTYSQKFKGRVTITADKSTSTAYMELSSLRSEDTAVYYCAREEEDGQFDYWGQGTTVTVSS
# VL: DIQMTQSPSSLSASVGDRVTITCSASQGIQWYLNWYQQKPGKAPKLLIYYTSSLHSGVPSRFSGSGSGTDFTLTISSLQPEDFATYYCQQHSKLPRTFGGGTKVEIKR
# notes: Full-length humanized antibody; Two heavy and two light chains per claim 3
# How the values were obtained:
# [1] = molecular target: T1, cynomologous monkey sclerostin (cynomologous monkey); assay: KinExA 3000 equilibrium binding in solution, 25 C, 1:1 model
# T1 construct: also called cyno sclerostin; Cyno Sclerostin
# Method: (§1) Equilibrium binding studies between an anti-sclerostin antibody and either human, cynomologous (“cyno”) monkey or rat sclerostin are performed on a KinExA 3000 instrument (Sapidyne Instruments Inc.) under KD-controlled conditions. With this technique, a fixed concentration of antibody below its KD is mixed with various concentration of sclerostin protein and allowed to come to equilibrium. The fraction of free, unbound, antibody remaining in solution is probed by briefly exposing this equibrated mixture to sclerostin-coated beads followed by detection with a fluorescently labeled secondary antibody. Typically 2 μM of an anti-sclerostin antibody to be tested is mixed with varying concentrations of human, cyno, or rat sclerostin starting at 2-50 nM and doing three-fold serial dilutions in binding buffer (1× phosphate buffered saline solution, pH 7.4, 0.02% sodium azide and 1 mg/mL bovine serum albumin) containing 2 pM of the antibody to be tested. These solutions are allowed to reach equilibrium over two days at 25° C. The amount of unbound antibody is probed using human sclerostin-coated azlactone beads (Sapidyne Instruments Inc.). These beads are prepared by reacting 50 mg of dry azlactone beads with 50 mcg/ml human sclerostin in a 50 mM sodium carbonate buffer at pH 9.0-9.6 with overnight rotation. Beads are then allowed to settle and the supernatant is replaced with blocking solution (1 M Tris, pH 8.0, plus 10 mg/mL bovine serum albumin) and rotated for one hour. This bead stock is diluted 20-fold into binding buffer and used within three days. A KinExA 3000 instrument equilibrated at room temperature (ca 25° C.) is used for binding studies. Typically 6.25 mL of the equilibrated antibody/sclerostin solution are drawn over a packed human sclerostin-azlactone bead column at 0.25 mL/minute flow rate then rinsed with running buffer (1× phosphate buffered saline solution, pH 7.4 with 0.02% sodium azide). The fraction of free anti-sclerostin antibody bound to these beads is quantified by measuring fluorescence resulting from an injected labeled secondary antibody (Cy5-labeled goat anti-human Fab′2 antibody). Two replicate samples for each condition are analyzed and KD is determined by fitting data to a 1:1 binding model using KinExA Pro software.
# rat sclerostin = molecular target: T2, rat sclerostin (rat, UniProt Q99P67 24-213, limits assumed); assay: as above
# T2 sequence (looked up): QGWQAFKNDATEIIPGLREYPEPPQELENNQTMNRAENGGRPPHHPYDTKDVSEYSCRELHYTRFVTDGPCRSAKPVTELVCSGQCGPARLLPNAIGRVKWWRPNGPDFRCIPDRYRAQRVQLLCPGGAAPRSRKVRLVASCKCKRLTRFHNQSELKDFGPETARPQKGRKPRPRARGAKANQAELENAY
# Method: as §1
# [2] = molecular target: T1, cynomologous monkey sclerostin; assay: cell-based or functional assay
# human sclerostin [3] = molecular target: T3, human sclerostin (human, UniProt Q9BQB4 24-213); assay: KinExA 3000 equilibrium binding in solution, 25 C, 1:1 model
# T3 construct: also called SOST gene product
# T3 sequence: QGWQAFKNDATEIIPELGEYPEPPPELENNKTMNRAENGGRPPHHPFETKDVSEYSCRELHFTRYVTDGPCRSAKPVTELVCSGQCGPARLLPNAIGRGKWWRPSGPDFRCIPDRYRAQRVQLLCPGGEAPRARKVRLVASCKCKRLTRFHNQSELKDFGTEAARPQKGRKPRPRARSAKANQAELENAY
# Method: as §1
# human sclerostin [4] = molecular target: T3, human sclerostin; assay: cell-based or functional assay
Binder,Kd [1],Kd (rat sclerostin),"IC50 (nM), bone specific alkaline phosphatase assay in C2C12 cells, using cyno sclerostin [2]",Kd (human sclerostin [3]),"IC50 (nM), bone specific alkaline phosphatase assay in C2C12 cells, using human sclerostin (human sclerostin [4])"
B1,75 pM,2.2 pM,23.7 nM,,
B2,1.4 pM,0.4 pM,34.4 nM,0.3 pM,25.1 nM
B3,1 pM,0.1 pM,31.6 nM,0.6 pM,25.5 nM
